Patent publication US20230203156A1, “ANTI-MDR1 ANTIBODIES AND USES THEREOF” (KENJOCKETY BIOTECHNOLOGY, INC., priority 2020, published 2023)
“Also recorded” adds a separate entry of the source.

B1: B1.223: anti-MDR1 antibody, Mouse; VH SEQ ID NO:102, VL SEQ ID NO:104 (antibody, listed as Mus musculus, V domains shown)
VH: EVKLVESGGALVKPGGSLKLSCAASGFTFSNYAMSWVRQTPEKRLEWVATISSGGSYTYYPDSVKGRFTISRDNAKTTLYLQMSGLRSEDTALYYCAKFSNYGRFASWGQGTLVTVSS
VL: DIQMIQSPLSLPVSLGDQASISCRSSQSIVHSSGNTYLEWYLQKPGQSPRLLIYKVSNRFFGVPDRISGSGSGTDFTLRISRVEAEDLGVYYCFQGSHVPYTFGGGTKLELK
B2: B1.129: anti-MDR1 antibody, Mouse; VH SEQ ID NO:56, VL SEQ ID NO:60 (antibody, listed as Mus musculus, V domains shown)
VH: EVQLQQSGPELVKPGASVKMSCKASGYTFSTYVIHWVKQKPGQGLEWIGYIYPYNDYTKYNEKFKDKATLTSDKSSSTAYMEIRSLTSEDSAVYYCSRAYYGNLVGYGVDYWGQGTSVTVSS
VL: QIVLTQSPAILPASPGEKVTMTCRASSSVSFIYWYQQRPGSSPKPWIFATSNLASGVPARFSGSGSGTSYSLTISRVEAEDAATYYCHQWGSNLPTFGGGTKLEIK
B3: B1.28: anti-MDR1 antibody, Mouse; VH SEQ ID NO:14, VL SEQ ID NO:18 (antibody, listed as Mus musculus, V domains shown)
VH: EVKLVESGGGLVKPGGSLKLSCAASGFTFGLYTMSWVRQTPERRLEWVATISSGGSNTYYPDSVKGRFTISRDNAKNNLFLQMNSLRSEDTALYYCARYYRYDAWFAYWGQGTLVTVSS
VL: DVLLTQTPLSLPVSLGDQASISCRSSQNIVHSTGNTYLDWYLQKPGQSPKLLIYKVSNRFSGVPDRFSGSGSGTDFTLKISRVEAEDLGVYFCFQGSHIPRTFGGGTKLEIK
B4: B1.261: anti-MDR1 antibody, Mouse; VH SEQ ID NO:118, VL SEQ ID NO:122 (antibody, listed as Mus musculus, V domains shown)
VH: QVQLKESGPGLVAPSQSLSITCTVSGFSLTSYGVHWVRQPPGKGLEWLVVIWSDGSTTYNSALKSRLSISKDNSKSQVFLKMNSLQIDDTAMYYCARHGRWLLQRGGAMDYWGQGTSVTVSS
VL: DVVMTQAPKFMSTSVGDRVSVTCRASQNVGSYIAWYQQKLGQSPKALIYSASYRCSGVPDRFTGSGAGTDFTLTIRNVQSEDLAEYFCQQYNSYPLTFGGGTKLEIK

Experiments:
[1] = tested on: A2780 ADR ovarian carcinoma; experiment: A2780 ADR drug-resistant ovarian carcinoma model in nude mice; assay type: in vivo; settings: for tumor volume, single agent: antibody as a single agent; for tumor volume, in combination with paclitaxel: antibody plus paclitaxel
Experimental: (§1) Anti-ABCB1 antibodies B1.129, B1.261, B1.223, B1.225, B1.188, B1.28, and B1.226 were tested for effect on growth of tumors in immunodeficient mice. The following cancer cell lines were used for generating tumor models.
A2780 ADR: The adriamycin-resistant cell line A2780ADR has been developed by exposure of the parent A2780 cell line (Sigma catalogue no. 93112519) to adriamycin. A2780ADR is cross-resistant to melphalan and vinblastine. To retain resistance adriamycin has to be added to the media. The cells grow as a monolayer and in suspension in spinner cultures and are tumorigenic in immune deficient mice. Together with the cisplatin-resistant variant A2780cis these lines only differ in their exposure to a single drug and should facilitate the search for molecular changes responsible for the expression of pleiotropic drug resistance in human ovarian cancer.
Nude mice were implanted with A2780 ADR cells to model ovarian carcinoma. Anti-B1 monoclonal antibodies are efficacious in A2780 ADR ovarian carcinoma model in nude mice.

[2] = tested on: MES-SA DX5 uterine sarcoma; experiment: MES-SA DX5 drug-resistant uterine sarcoma model in nude mice; assay type: in vivo; settings: for tumor volume / tumor growth, single agent / tumor volume / tumor growth, in combination with paclitaxel: MES-SA DX5, nude mice; for tumor volume / tumor growth, single agent: antibody as a single agent; for tumor volume / tumor growth, in combination with paclitaxel: antibody plus paclitaxel; for sensitization of MES-SA DX5 uterine sarcoma to paclitaxel: MES-SA DX5 tumors in vivo
Experimental: as §1
MES-SA DX5: The multi drug-resistant cell line MES-SA/Dx5 (Sigma. 95051031) was derived from the human uterine sarcoma cell line MES-SA (Sigma Catalogue number. 95051030) which was originally obtained from a tumour from a person at the time of hysterectomy. […] Cross resistance to bleomycin, cisplatin, carmustine, 5-fluorouracil or methotrexate was not observed.
Nude mice were implanted with MES-SA DX5 cells to model uterine sarcoma. Anti-B1 monoclonal antibodies are efficacious in MES-SA DX5 uterine sarcoma model in nude mice.

[3] = tested on: MES-SA DX5 uterine sarcoma; experiment: MES-SA DX5 uterine sarcoma model in NSG mice; assay type: in vivo
Excerpt: NSG mice were implanted with MES-SA DX5 cells to model uterine sarcoma. Anti-B1 monoclonal antibodies are efficacious in MES-SA DX5 uterine sarcoma model in NSG mice.

[4] = biological target: T1, human MDR1 extracellular loops 1 and 4 (ECD1, ECD4) (Homo sapiens, UniProt P08183); experiment: Epitope mapping with mutant human MDR1 expressed on 293T cells (flow cytometry); assay type: binding; settings: extracellular loop 1 and extracellular loop 4
T1 construct: FLAG (C); expressed in transfected cells; host or cells: 293T
Excerpt: (§2) To determine binding of anti-MDR1 mAbs listed in Table 2 to the two major extracellular loops 1 and 4 of MDR1, various mutations were constructed to alter or substitute these two loops. To examine binding to cynomolgus extracellular loops, the extracellular loop 1 and/or loop 4 of cynomolgus MDR1 were grafted (with a C-terminal FLAG tag) to substitute for the human loops in the human MDR1 using standard techniques. To examine binding dependence on the normal human loops, MDR1 variants with deletion 79-102 and deletion 82-99 in loop 1 were also generated. Loop 1 is also referred to as ECD1. Loop 4 is also referred to as ECD4. These mutant MDR1 efflux pump variants were expressed on 293T cells using standard methods to generate cells that could be used to distinguish binding of various anti-MDR1 mAbs. The different cells were incubated with different anti-MDR1 mAbs for about 1 hour at 4° C. The cells were washed twice with FACS buffer (PBS containing 0.5% BSA). Alexa647 labeled goat anti-human antibody was added as a secondary antibody, and the samples were incubated on ice for another 1 hour. Samples were washed again and analyzed by flow cytometry.
(§3) FIG. 9 summarizes the findings from preliminary epitope mapping using mutant human MDR1. […] For example, anti-MDR1 mAb B1.129 requires ECD1 and ECD4 for binding to human MDR1. All of the anti-MDR1 antibodies contact ECD4. […] ECD1 refers to the first extracellular domain of human ABCB1, ECD4 refers to the fourth extracellular domain of human ABCB1 and “others” refers to the remainder of the extracellular domains 2-3 and 5-6 of human ABCB1. Only binding to ECD1 and ECD4 was tested.

[5] = biological target: T2, human MDR1 (Homo sapiens, UniProt P08183); experiment: Antibody binding/titration to 293T cells overexpressing human MDR1 (FACS); settings: 293T cell line overexpressing human MDR1
T2 construct: expressed in transfected cells
Experimental: Antibody binding to cells was evaluated by flow cytometry. 293T cells stably transfected to express human ABCB1 (293T_KPB1_OX) were washed once in flow cytometry buffer (PBS + 2% FBS + 0.02% sodium azide), resuspended at 2 x 10 \^6 cells/mL in flow cytometry buffer, and dispensed into 96-well microtiter plates at 0.1 mL/well. In the figures, “B1” refers to ABCB1 (also known as MDR1 or Pgp). Recombinant antibodies were added to cells at 5 ug/mL for initial binding confirmation, or serially diluted from 100 ug/mL in flow cytometry buffer. After incubating cells on ice for 30 min, cells were washed twice with flow cytometry buffer. Bound antibody was detected with PE-labeled F(ab′)2 fragment goat anti-human IgG (Jackson ImmunoResearch) and evaluated on an Attune NxT flow cytometer.
Binding titration of recombinant antibodies to ABCB1 transfectants was performed by 3-fold serial dilution of antibodies from 666.7 nM. Diluted antibody in flow cytometry buffer was incubated with cells on ice for 30 min. After 2 washes with flow cytometry buffer, bound antibody was detected with PE-labeled F(ab′)2 fragment goat anti-human IgG (Jackson ImmunoResearch) diluted 1:200 in flow cytometry buffer and incubated with cells for 20 min on ice. After 2 washes with flow cytometry buffer fluorescence was measured on an Attune NxT flow cytometer. Data were analyzed with GraphPad Prism 8.0 software to determine EC50′s.
(§4) Anti-MDR1 mAb B1.129 and a humanized version thereof were assessed for binding to 293T cell line overexpressing human MDR1 or to 293T cells transfected with cynomolgus MDR1. […] B1.129.hz1 and B1.129.hz2 antibodies are the same as the humanized versions B1.129.huH1-huL1(KV3) and B1.129.huH1-huL1(KV1), respectively, listed in Table 2. FIG. 10C summarizes the binding data for the B1.129 antibody.

[6] = tested on: cynomolgus MDR1; experiment: Antibody binding to 293T cells transfected with cynomolgus MDR1
cynomolgus MDR1, sequence (as listed by the source): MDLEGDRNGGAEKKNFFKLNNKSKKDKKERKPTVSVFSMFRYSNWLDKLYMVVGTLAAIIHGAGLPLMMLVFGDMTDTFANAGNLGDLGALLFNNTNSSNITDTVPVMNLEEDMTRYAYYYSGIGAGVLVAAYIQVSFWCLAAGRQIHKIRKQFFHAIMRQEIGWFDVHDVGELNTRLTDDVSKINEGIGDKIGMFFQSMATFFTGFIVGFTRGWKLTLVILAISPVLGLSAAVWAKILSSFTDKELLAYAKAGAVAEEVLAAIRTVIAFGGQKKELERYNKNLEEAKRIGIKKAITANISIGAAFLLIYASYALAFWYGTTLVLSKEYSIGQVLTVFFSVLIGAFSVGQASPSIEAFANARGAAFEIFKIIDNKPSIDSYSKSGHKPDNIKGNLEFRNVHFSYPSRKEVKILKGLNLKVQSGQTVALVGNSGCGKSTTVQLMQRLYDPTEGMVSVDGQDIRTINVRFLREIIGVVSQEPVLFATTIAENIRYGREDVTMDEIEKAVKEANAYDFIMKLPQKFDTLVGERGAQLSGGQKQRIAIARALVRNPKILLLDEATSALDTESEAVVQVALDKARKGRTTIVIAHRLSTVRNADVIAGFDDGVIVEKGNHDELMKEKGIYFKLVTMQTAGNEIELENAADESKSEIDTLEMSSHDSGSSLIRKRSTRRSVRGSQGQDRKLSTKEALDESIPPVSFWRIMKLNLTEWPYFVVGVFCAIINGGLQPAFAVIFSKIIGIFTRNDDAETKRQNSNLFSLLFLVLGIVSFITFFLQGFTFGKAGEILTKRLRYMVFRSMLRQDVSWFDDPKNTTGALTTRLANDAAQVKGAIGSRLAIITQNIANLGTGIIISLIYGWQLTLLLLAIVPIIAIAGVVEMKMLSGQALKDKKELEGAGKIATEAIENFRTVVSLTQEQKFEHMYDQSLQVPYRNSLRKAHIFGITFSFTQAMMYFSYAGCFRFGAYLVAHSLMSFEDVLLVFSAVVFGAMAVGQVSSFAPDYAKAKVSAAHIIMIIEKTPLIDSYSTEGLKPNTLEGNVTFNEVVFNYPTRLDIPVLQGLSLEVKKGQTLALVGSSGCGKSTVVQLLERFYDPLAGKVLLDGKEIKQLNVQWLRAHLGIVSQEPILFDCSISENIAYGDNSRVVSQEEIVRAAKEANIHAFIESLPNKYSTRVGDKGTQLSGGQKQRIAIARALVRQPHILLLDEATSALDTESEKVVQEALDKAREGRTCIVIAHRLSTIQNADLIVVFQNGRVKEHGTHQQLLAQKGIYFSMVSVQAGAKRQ
Experimental: as §4
Anti-MDR1 mAb B1.28 and a humanized version thereof were assessed for binding to 293T cell line overexpressing human MDR1 or to 293T cells transfected with cynomolgus MDR1.

[7] = tested on: human MDR1 extracellular loops 1 and 4 (ECD1, ECD4); experiment: Epitope mapping with mutant human MDR1 expressed on 293T cells (flow cytometry); assay type: binding; settings: mutant versus WT human ABCB1; preliminary epitope mapping
Excerpt: as §2, §3

[8] = biological target: T2, human MDR1; experiment: Efflux blockade of MDR1 fluorescent substrates (flow cytometry); assay type: cell-based
Experimental: HEK 293T cells expressing human MDR1 or MES-SA/DX5 cells expressing human MDR1 were washed several times and aliquoted into 96-well plates as 50 µl aliquots/well at a cell density of 1 x 10e6 cells per ml in phenol red-free DMEM. Cells were mixed with 300 nM to 1 nM antibodies and incubated for 1 h at 37° C. To determine efflux blockade cells were incubated in the presence of B1 fluorescent substrates as follows: 0.6 µM Rhodamine; 5 µM […] (DiOC2(3)) or 0.6 µM Calcein AM for 1.5 h at 37° C. The cells were then washed twice and finally resuspended in […] PBS. Rhodamine, DiOC2(3) or Calcein AM fluorescence were measured by flow cytometry.
Effect of anti-MDR1 antibodies on efflux of MDR1 substrates Calcein, DIOC2, and Rhodamine was assessed as described in efflux blockade experimental procedure.

Molecule	tumor volume, single agent [1]	tumor volume, in combination with paclitaxel [1]	tumor volume / tumor growth, single agent [2]	tumor volume / tumor growth, in combination with paclitaxel [2]	sensitization of MES-SA DX5 uterine sarcoma to paclitaxel [2]	sensitization of MES-SA DX5 uterine sarcoma to paclitaxel [3]	epitope on human MDR1 [4]	binding to human MDR1 (hB1) [5]	binding to cynomolgus MDR1 (cB1) [6]	ECD1 required for antibody binding to human ABCB1 [7]	ECD4 required for antibody binding to human ABCB1 [7]	inhibition of efflux of DIOC2 ([8]; 293T.hB1 cell line)	inhibition of efflux of Rhodamine ([8]; 293T.hB1 cell line)	inhibition of efflux of DIOC2 ([8]; MES-SA/Dx5 cells)	inhibition of efflux of Rhodamine ([8]; MES-SA/Dx5 cells)	inhibition of efflux of Calcein ([8]; cell line not given)
B1	decreased tumor volume	decreased tumor volume	decreased tumor volume	decreased tumor volume	sensitized	sensitizes	bind to an epitope comprising extracellular loop 1 and extracellular loop 4	–	–	–	–	–	–	–	–	–
B2	decreased tumor volume	decreased tumor volume	decreased tumor volume; also recorded: more effective in inhibiting tumor growth than 15D3 antibody	decreased tumor volume; also recorded: more effective in inhibiting tumor growth than 15D3 antibody	–	–	bind to an epitope comprising extracellular loop 1 and extracellular loop 4	binds	binds	requires	requires	inhibited efflux	inhibited efflux	inhibited efflux	inhibited efflux	inhibited efflux of Calcein to a greater extent than the anti-MDR1 antibody 15D3
B3	decreased tumor volume	decreased tumor volume	–	–	–	–	–	binds to both hB1 and cB1	binds to both hB1 and cB1	–	–	–	–	–	–	–
B4	decreased tumor volume	decreased tumor volume	decreased tumor volume	decreased tumor volume	sensitized	–	–	bind to hB1 and cB1	bind to hB1 and cB1	–	–	–	–	–	–	–
